Measurements reported in patent publication US20230365698A1, “ANTI-IFNAR1 DOSING REGIME FOR SUBCUTANEOUS INJECTION” (published 2023).

Tests used:
[1] = biological target: T1, subunit 1 of the type I interferon receptor (IFNAR1), in patients (human, UniProt P17181); assay: cell-based or functional assay
T1 sequence: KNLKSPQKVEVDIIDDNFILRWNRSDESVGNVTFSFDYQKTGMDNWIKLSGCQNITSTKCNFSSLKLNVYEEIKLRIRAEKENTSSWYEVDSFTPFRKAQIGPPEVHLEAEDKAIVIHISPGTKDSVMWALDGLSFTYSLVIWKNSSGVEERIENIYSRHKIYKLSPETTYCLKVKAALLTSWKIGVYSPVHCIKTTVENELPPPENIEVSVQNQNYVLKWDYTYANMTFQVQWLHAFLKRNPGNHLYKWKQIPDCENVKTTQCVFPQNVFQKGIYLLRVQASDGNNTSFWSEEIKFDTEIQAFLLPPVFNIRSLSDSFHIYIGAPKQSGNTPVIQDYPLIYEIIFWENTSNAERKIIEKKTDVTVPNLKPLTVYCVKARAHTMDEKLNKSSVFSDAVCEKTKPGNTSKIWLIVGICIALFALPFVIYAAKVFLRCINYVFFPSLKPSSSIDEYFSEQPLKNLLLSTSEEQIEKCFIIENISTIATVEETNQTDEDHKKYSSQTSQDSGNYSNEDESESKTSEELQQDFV

[2] = biological target: T1, subunit 1 of the type I interferon …; assay: cell-based or functional assay; remark: listed apart in the source

B1: Anifrolumab (antibody, V domains shown)
VH: EVQLVQSGAEVKKPGESLKISCKGSGYIFTNYWIAWVRQMPGKGLESMGIIYPGDSDIRYSPSFQGQVTISADKSITTAYLQWSSLKASDTAMYYCARHDIEGFDYWGRGTLVTVSS
VL: EIVLTQSPGTLSLSPGERATLSCRASQSVSSSFFAWYQQKPGQAPRLLIYGASSRATGIPDRLSGSGSGTDFTLTITRLEPEDFAVYYCQQYDSSAITFGQGTRLEIKR
- IC80: approximate anifrolumab concentration required to produce 80% of the maximum inhibition of the 21-IFNGS expression relative to baseline (PK/PD model estimate) [1]: 3.88 µg/mL
- IC50 (nM): anifrolumab concentration required to produce 50% of the maximum inhibition of the 21-IFNGS expression relative to baseline (PK/PD model estimate from TULIP-1 and TULIP-2 data) [2]: 6.56 nM
